According to patent US20250339504A1 (published 2025):
Positions count from the first letter of the chain named.

T1: GPC3 peptide on HLA-A*24:02 (human)
T1 peptide: EYILSLEEL

T2: GPC3 peptide on HLA-A2 (human)
T2 peptide: FVGEFFTDV

T3: FOXM1 peptide on HLA-A*24:02 (human)
T3 peptide: IYTWIEDHF

B1: i2F3 (TCR, V domains shown)
Valpha: RKEVEQDPGPFNVPEGATVAFNCTYSNSASQSFFWYRQDCRKEPKLLMSVYSSGNEDGRFTAQLNRASQYISLLIRDSKLSDSATYLCVVNKSWGKLQFGAGTQVVVTP
Vbeta: DSGVTQTPKHLITATGQRVTLRCSPRSGDLSVYWYQQSLDQGLQFLIQYYNGEERAKGNILERFSAQQFPDLHSELNLSSLELGDSALYFCASSAGTSGNEQFFGPGTRLTVL
B2: eD3 (TCR, V domains shown)
Valpha: RKEVEQDPGPFNVPEGATVAFNCTYSNSASQSFFWYRQDCRKEPKLLMSVYSSGNEDGRFTAQLNRASQYISLLIRDSKLSDSATYLCVVKGGNNFNKFYFGSGTKLNVKP
Vbeta: NAGVTQTPKFQVLKTGQSMTLQCAQDMNHNSMYWYRQDPGMGLRLIYYSASEGTTDKGEVPNGYNVSRLNKREFSLRLESAAPSQTSVYFCASSHRVNSNQPQHFGDGTRLSIL
B3: (46)2A6 (TCR, V domains shown)
Valpha: RKEVEQDPGPFNVPEGATVAFNCTYSNSASQSFFWYRQDCRKEPKLLMSVYSSGNEDGRFTAQLNRASQYISLLIRDSKLSDSATYLCKISGGYNKLIFGAGTRLAVHP
Vbeta: DSGVTQTPKHLITATGQRVTLRCSPRSGDLSVYWYQQSLDQGLQFLIQYYNGEERAKGNILERFSAQQFPDLHSELNLSSLELGDSALYFCASSVGGGLGTEAFFGQGTRLTVV
B4: il2G6, TRA of SEQ ID NO: 129 (TCR, V domains shown)
Valpha: LAKTTQPISMDSYEGQEVNITCSHNNIATNDYITWYQQFPSQGPRFIIQGYKTKVTNEVASLFIPADRKSSTLSLPRVSLSDTAVYYCLVGHSGNTPLVFGKGTRLSVIA
Vbeta: B3 Vbeta with L99A, T101N, E102T, A103I, F104Y, Q107E, T109S, R110W
B5: i6E9 (TCR, V domains shown)
Valpha: RKEVEQDPGPFNVPEGATVAFNCTYSNSASQSFFWYRQDCRKEPKLLMSVYSSGNEDGRFTAQLNRASQYISLLIRDSKLSDSATYLCVVNLGNYGQNFVFGPGTRLSVLP
Vbeta: B3 Vbeta with G100S, T101N, A103Q, Q107P, V114L
B6: i7E6, TRA of SEQ ID NO: 138 (TCR, V domains shown)
Valpha: AQRVTQPEKLLSVFKGAPVELKCNYSYSGSPELFWYVQYSRQRLQLLLRHISRESIKGFTADLNKGETSFHLKKPFAQEEDSAMYYCALANQAGTALIFGKGTTLSVSS
Vbeta: B3 Vbeta with V95P, L99A, G100S, T101S, E102P, A103L, F104H, Q107N, V114T
B7: eC7 (TCR, V domains shown)
Valpha: SQQGEEDPQALSIQEGENATMNCSYKTSINNLQWYRQNSGRGLVHLILIRSNEREKHSGRLRVTLDTSKKSSSLLITASRAADTASYFCAVRYSSASKIIFGSGTRLSIRP
Vbeta: B3 Vbeta with V95A, L99S, G100N, T101N, A103Q, Q107P, V114L
B8: i7E6, TRA of SEQ ID NO: 139 (TCR, V domains shown)
Valpha: KQEVTQIPAALSVPEGENLVLNCSFTDSAIYNLQWFRQDPGKGLTSLLLIQSSQREQTSGRLNASLDKSSGRSTLYIAASQPGDSATYLCAVKRRAAGNKLTFGGGTRVLVKP
Vbeta: B3 Vbeta with V95P, L99A, G100S, T101S, E102P, A103L, F104H, Q107N, V114T
B9: eC1 (TCR, V domains shown)
Valpha: GESVGLHLPTLSVQEGDNSIINCAYSNSASDYFIWYKQESGKGPQFIIDIRSNMDKRQGQRVTVLLNKTVKHLSLQIAATQPGDSAVYFCAGRTGFQKLVFGTGTRLLVSP
Vbeta: B3 Vbeta with G100Y, T101N, A103Q, Q107P, V114L
B10: il2G6, TRA of SEQ ID NO: 130 (TCR, V domains shown)
Valpha: RKEVEQDPGPFNVPEGATVAFNCTYSNSASQSFFWYRQDCRKEPKLLMSVYSSGNEDGRFTAQLNRASQYISLLIRDSKLSDSATYLCVVNTGRRALTFGSGTRLQVQP
Vbeta: B3 Vbeta with L99A, T101N, E102T, A103I, F104Y, Q107E, T109S, R110W
B11: G9 (TCR, V domains shown)
Valpha: KQEVTQIPAALSVPEGENLVLNCSFTDSAIYNLQWFRQDPGKGLTSLLLIQSSQREQTSGRLNASLDKSSGRSTLYIAASQPGDSATYLCAVTRRALTFGSGTRLQVQP
Vbeta: KAGVTQTPRYLIKTRGQQVTLSCSPISGHRSVSWYQQTPGQGLQFLFEYFSETQRNKGNFPGRFSGRQFSNSRSEMNVSTLELGDSALYLCASSVTSGRTHTDTQYFGPGTRLTVL
B12: i3C2 (TCR, V domains shown)
Valpha: GQNIDQPTEMTATEGAIVQINCTYQTSGFNGLFWYQQHAGEAPTFLSYNVLDGLEEKGRFSSFLSRSKGYSYLLLKELQMKDSASYLCAVRVWKAAGNKLTFGGGTRVLVKP
Vbeta: GAVVSQHPSWVICKSGTSVKIECRSLDFQATTMFWYRQFPKQSLMLMATSNEGSKATYEQGVEKDKFLINHASLTLSTLTVTSAHPEDSSFYICSARRLAGGGNEQFFGPGTRLTVL
B13: ⑧2D9 (TCR, V domains shown)
Valpha: QKEVEQNSGPLSVPEGAIASLNCTYSDRGSQSFFWYRQYSGKSPELIMFIYSNGDKEDGRFTAQLNKASQYVSLLIRDSQPSDSATYLCAVNMDGNNRLAFGKGNQVVVIP
Vbeta: DAGITQSPRHKVTETGTPVTLRCHQTENHRYMYWYRQDPGHGLRLIHYSYGVKDTDKGEVSDGYSVSRSKTEDFLLTLESATSSQTSVYFCASVYGSEAFFGQGTRLTVV
B14: 52B11 (TCR, V domains shown)
Valpha: QKEVEQDPGPLSVPEGAIVSLNCTYSNSAFQYFMWYRQYSRKGPELLMYTYSSGNKEDGRFTAQVDKSSKYISLFIRDSQPSDSATYLCAQRIVMEYGNKLVFGAGTILRVKS
Vbeta: EPEVTQTPSHQVTQMGQEVILRCVPISNHLYFYWYRQILGQKVEFLVSFYNNEISEKSEIFDDQFSVERPDGSNFTLKIRSTKLEDSAMYFCASSEGAEAFFGQGTRLTVV
B15: i2B7 (TCR, V domains shown)
Valpha: AQSVAQPEDQVNVAEGNPLTVKCTYSVSGNPYLFWYVQYPNRGLQFLLKYITGDNLVKGSYGFEAEFNKSQTSFHLKKPSALVSDSALYFCAVNPTGGGNKLTFGTGTQLKVEL
Vbeta: DARVTQTPRDKVTEMGQEVTMRCQPILGHNTVFWYRQTMMQGLELLAYFRNRAPLDDSGMPKDRFSAEMPDATLATLKIQPSEPRDSAVYFCASGLGGNQPQHFGDGTRLSIL
B16: ⑨5C6 (TCR, V domains shown)
Valpha: AQSVTQPDIHITVSEGASLELRCNYSYGATPYLFWYVQSPGQGLQLLLKYFSGDTLVQGIKGFEAEFKRSQSSFNLRKPSVHWSDAAEYFCAVGSPSGYSTLTFGKGTMLLVSP
Vbeta: EAQVTQNPRYLITVTGKKLTVTCSQNMNHEYMSWYRQDPGLGLRQIYYSMNVEVTDKGDVPEGYKVSRKEKRNFPLILESPSPNQTSLYFCASSPTRFYEQYFGPGTRLTVT
B17: ②1E7 (TCR, V domains shown)
Valpha: AQSVSQHNHHVILSEAASLELGCNYSYGGTVNLFWYVQYPGQHLQLLLKYFSGDPLVKGIKGFEAEFIKSKFSFNLRKPSVQWSDTAEYFCAVRHGGTGTASKLTFGTGTRLQVTL
Vbeta: GAVVSQHPSWVICKSGTSVKIECRSLDFQATTMFWYRQFPKQSLMLMATSNEGSKATYEQGVEKDKFLINHASLTLSTLTVTSAHPEDSSFYICSARALGGYTFGSGTRLTVV
B18: F5 (TCR, V domains shown)
Valpha: KDQVFQPSTVASSEGAVVEIFCNHSVSNAYNFFWYLHFPGCAPRLLVKGSKPSQQGRYNMTYERFSSSLLILQVREADAAVYYCAVNQAGTALIFGKGTTLSVSS
Vbeta: DTEVTQTPKHLVMGMTNKKSLKCEQHMGHRAMYWYKQKAKKPPELMFVYSYEKLSINESVPSRFSPECPNSSLLNLHLHALQPEDSALYLCASSQERTSGRSADTQYFGPGTRLTVL
B19: (21)1D5 (TCR, V domains shown)
Valpha: QKEVEQDPGPLSVPEGAIVSLNCTYSNSAFQYFMWYRQYSRKGPELLMYTYSSGNKEDGRFTAQVDKSSKYISLFIRDSQPSDSATYLCAMSGHFNKFYFGSGTKLNVKP
Vbeta: KAGVTQTPRYLIKTRGQQVTLSCSPISGHRSVSWYQQTPGQGLQFLFEYFSETQRNKGNFPGRFSGRQFSNSRSEMNVSTLELGDSALYLCASSLRAGELFFGEGSRLTVL
B20: 1F5 (TCR, V domains shown)
Valpha: EDQVTQSPEALRLQEGESSSLNCSYTVSGLRGLFWYRQDPGKGPEFLFTLYSAGEEKEKERLKATLTKKESFLHITAPKPEDSATYLCAASNSGGSNYKLTFGKGTLLTVNP
Vbeta: DSGVTQTPKHLITATGQRVTLRCSPRSGDLSVYWYQQSLDQGLQFLIQYYNGEERAKGNILERFSAQQFPDLHSELNLSSLELGDSALYFCASSVDGKGTQYFGPGTRLLVL
B21: Clone 4, 7, 34 (Table 10) (TCR, V domains shown)
Valpha: GEQVEQRPPHLSVREGDSAFIICTYTDSATAYFYWYKQEPGAGLQLLMSVFSNVDRKEEQGLTVLLNKKDKRLSLNLTAAHPGDSAVYFCAVGNSNNRIFFGDGTQLVVKP
Vbeta: NTKITQSPRYLILGRANKSLECEQHLGHNAMYWYKQSAEKPPELMFLYNLKQLIRNETVPSRFIPECPDSSKLLLHISAVDPEDSAVYFCASSQLGSSAETLYFGSGTRLTVL
B22: e1D8 (TCR, V domains shown)
Valpha: GEDVEQSLFLSVREGDSSVINCTYTDSSSTYLYWYKQEPGAGLQLLTYIFSNMDMKQDQRLTVLLNKKDKHLSLRIADTQTGDSAIYFCAENHSSASKIIFGSGTRLSIRP
Vbeta: B3 Vbeta with G97S, L99R, G100N, T101Y, A103Q, F104Y, Q107P, V114T

Biological target: T1, GPC3 peptide on HLA-A*24:02
Assay: multimer staining

Binding result, recognises:
B1
B2
B3
B4
B5
B6
B7
B8
B9
B10
B11
B12

Biological target: T2, GPC3 peptide on HLA-A2
Assay: multimer staining

Binding result, recognises:
B13
B14
B15
B16

Biological target: T3, FOXM1 peptide on HLA-A*24:02
Assay: multimer staining

Binding result, recognises:
B17
B18
B19
B20

Biological target: EPHB4 peptide on HLA-A*02:01 (human)
Assay: activation reporter or marker

Binding result, recognises:
B21

Biological target: T1, GPC3 peptide on HLA-A*24:02
Assay: cytokine release

Binding result, recognises:
B22
